According to patent US20250051465A1 (published 2025):

T1: full length human LEPR on cells (human, UniProt P48357 22-1165)
T1 construct: also called HEK293/Stat3-luc/hLEPR-FL; hLEPR-FL
T1 sequence: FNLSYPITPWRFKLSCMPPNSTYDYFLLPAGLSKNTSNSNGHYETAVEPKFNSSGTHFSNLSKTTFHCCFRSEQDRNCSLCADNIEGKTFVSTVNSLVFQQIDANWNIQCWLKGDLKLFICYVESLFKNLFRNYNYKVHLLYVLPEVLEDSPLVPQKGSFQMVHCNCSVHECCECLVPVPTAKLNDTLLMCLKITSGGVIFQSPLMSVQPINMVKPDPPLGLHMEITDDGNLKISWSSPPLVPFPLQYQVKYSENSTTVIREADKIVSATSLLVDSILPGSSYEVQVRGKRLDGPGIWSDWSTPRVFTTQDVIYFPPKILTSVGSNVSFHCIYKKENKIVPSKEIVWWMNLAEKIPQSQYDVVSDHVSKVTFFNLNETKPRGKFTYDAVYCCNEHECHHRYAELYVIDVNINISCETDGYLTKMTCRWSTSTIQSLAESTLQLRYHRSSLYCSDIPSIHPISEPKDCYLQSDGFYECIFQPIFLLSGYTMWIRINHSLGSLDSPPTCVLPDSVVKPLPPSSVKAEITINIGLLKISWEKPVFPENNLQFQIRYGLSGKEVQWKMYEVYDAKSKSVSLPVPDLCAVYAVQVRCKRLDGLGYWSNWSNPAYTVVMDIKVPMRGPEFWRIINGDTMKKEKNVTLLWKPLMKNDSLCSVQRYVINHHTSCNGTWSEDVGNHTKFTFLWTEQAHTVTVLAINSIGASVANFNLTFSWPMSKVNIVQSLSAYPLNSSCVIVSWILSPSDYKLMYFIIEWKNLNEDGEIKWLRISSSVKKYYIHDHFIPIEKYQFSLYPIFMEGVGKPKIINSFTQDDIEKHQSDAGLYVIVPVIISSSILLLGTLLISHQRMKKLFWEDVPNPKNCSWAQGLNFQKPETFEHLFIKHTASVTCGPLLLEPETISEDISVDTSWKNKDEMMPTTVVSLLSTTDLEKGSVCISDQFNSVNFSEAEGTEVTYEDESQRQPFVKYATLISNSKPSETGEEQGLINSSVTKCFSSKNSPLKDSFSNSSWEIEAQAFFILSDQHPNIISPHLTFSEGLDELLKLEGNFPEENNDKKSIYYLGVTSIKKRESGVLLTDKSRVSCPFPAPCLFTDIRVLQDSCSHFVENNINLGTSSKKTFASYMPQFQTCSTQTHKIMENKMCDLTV

B1: H4H17319P2 (antibody, human IgG4, V domains shown)
VH: QVQLVESGGSVVQPGRSLRLSCAASGFTFSTYAMYWVRQTPGKGLEWVAVLYSDGSNKYYIDSVKGRFTISRDTSTNTLYLQMSSLRADDSALYYCARLNWDYWYFDLWGRGTLVTVSS
VL: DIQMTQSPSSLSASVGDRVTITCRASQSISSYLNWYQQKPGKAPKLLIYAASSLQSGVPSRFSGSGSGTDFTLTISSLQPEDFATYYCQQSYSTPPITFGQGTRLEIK
notes: Fully human antibody with human IgG4 Fc (H4H prefix)
B2: H4H16679P2 (antibody, human IgG4, V domains shown)
VH: QVQLVESGGGVVQPGRSLRLSCTASGFTFSSYAMYWVRQAPGKGLEWVSVIYYDGSYKYYADSVKGRFTISRDNSKNTLYLQMDSLRAEDTAVYYCASYNWNYWYFDFWGRGTLVTVSS
VL: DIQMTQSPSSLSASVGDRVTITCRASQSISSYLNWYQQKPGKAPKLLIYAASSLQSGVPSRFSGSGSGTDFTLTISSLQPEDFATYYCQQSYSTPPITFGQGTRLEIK
notes: as for B1
B3: H4H17321P2 (antibody, human IgG4, V domains shown)
VH: QVQLVESGGGVVQPGRSLRLSCEASGFSSSDNAMYWVRQAPGKGLEWVSVIYHDGSYKYYEDSVKGRFTIARDNSKNTLYLQMNSLRAEDTAVYYCARYNWNHWYFDVWGRGTLVTVSS
VL: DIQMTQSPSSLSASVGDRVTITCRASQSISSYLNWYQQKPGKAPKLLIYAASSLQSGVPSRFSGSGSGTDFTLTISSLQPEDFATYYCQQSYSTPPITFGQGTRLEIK
notes: as for B1
B4: H4H16650P2 (antibody, human IgG4, V domains shown)
VH: QVQLVESGGGVVQPGKSLRLSCVASGFTFSSDAMYWVRQAPGKGLEWVAVIYYDGNYQYYEDSVKGRFTISRDNSQNTLDLQMNSLRVDDTAVYFCARLNWDYWYLDLWGRGTLVTVSS
VL: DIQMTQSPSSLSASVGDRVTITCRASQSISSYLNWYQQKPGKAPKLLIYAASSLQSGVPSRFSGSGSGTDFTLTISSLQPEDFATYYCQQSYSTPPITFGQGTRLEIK
notes: as for B1
B5: H4H18445P2 (antibody, human IgG4, V domains shown)
VH: QVQLQESGPGLVKPSQTLSLTCTVSGGSISSGGDYWSWIRQLPGKGLEWIGYIYYSGSAYYNPSLKSRGTISIDTSKNQFSLKLTSVTAADTAVYFCVKLRFLEWFLGGWFGPWGQGTLVTVSS
VL: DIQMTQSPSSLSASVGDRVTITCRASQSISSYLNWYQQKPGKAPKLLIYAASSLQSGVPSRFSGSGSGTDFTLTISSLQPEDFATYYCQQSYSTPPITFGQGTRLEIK
notes: as for B1
B6: H4H18417P2 (antibody, human IgG4, V domains shown)
VH: QVQLVESGGGVVQPGRSLRLSCAASGFTFSTYGMHWVRQAPGKGLEWVSVISYDESNKYYADSVKGRFTISRDNSKNALYLQMNSLRNEDTAVYYCARDRPFGLVTGWFDPWGQGTLVTVSS
VL: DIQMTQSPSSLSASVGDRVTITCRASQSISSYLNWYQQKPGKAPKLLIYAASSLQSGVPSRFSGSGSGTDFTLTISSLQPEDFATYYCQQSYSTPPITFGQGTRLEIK
notes: as for B1
B7: H4H18449P2 (antibody, human IgG4, V domains shown)
VH: EVQLVESGGGLVQPGGSLRLSCVASGFTFNKYDMHWVRQTTGKGLEWVSGIDTDGDTYYPGSVKGRFTISRENAENSLYLQMNGLRVGDTAVYYCARWPWSGFYGAFDIWGQGTMVTVSS
VL: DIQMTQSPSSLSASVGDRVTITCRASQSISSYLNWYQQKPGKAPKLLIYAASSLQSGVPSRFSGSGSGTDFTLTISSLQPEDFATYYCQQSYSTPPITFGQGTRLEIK
notes: as for B1
B8: H4H18446P2 (antibody, human IgG4, V domains shown)
VH: EVQLVESGGGLVQPGGSLRLSCAASGFTFSNYGMTWVRQAPGKGLEWVSAITGGGGSTYYSNSVKGRFTISRDNSKNTVYLRMNSVRAEDTAVYYCAKYKWNFVDDWGQGTTVTVSS
VL: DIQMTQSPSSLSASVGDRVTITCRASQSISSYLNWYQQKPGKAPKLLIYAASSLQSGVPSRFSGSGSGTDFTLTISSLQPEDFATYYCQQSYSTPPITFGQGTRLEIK
notes: as for B1
B9: H4H18438P2 (antibody, human IgG4, V domains shown)
VH: QVQLVESGGGVVQPGRSLRLSCAASGFSFNTYGMHWVRQAPGKGLEWVTIIWYDGSIKYYADSVKGRFTISRDNSKNTLYLQMNSLRAEDTAVYYCARGGYSGYLYFDYWGQGTLVTVSS
VL: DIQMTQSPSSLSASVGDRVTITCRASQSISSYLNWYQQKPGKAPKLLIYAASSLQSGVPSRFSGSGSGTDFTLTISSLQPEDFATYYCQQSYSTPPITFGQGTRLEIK
notes: as for B1

Biological target: extracellular domain of Macaca fascicularis LEPR fused with the transmembrane and cytosolic domains of human … (Macaca fascicularis; human, UniProt P48357 840-1165)
Assay: cell-based or functional assay

Question: For B1, which “% Activation” value is on record?
Answer: 76%

Question: And the “EC50, STAT3-Luc reporter, IMR-32/STAT3-Luc/MfLEPR cells” value (from here on “EC50 … IMR-32/STAT3-Luc/MfLEPR cells”)?
Answer: 0.365 nM

Question: With B2 as the binder, how does the “% Activation” value read?
Answer: 80%

Question: And the “EC50 … IMR-32/STAT3-Luc/MfLEPR cells” value?
Answer: 0.249 nM

Question: For B3, which “% Activation” value is on record?
Answer: 78%

Question: And the “EC50 … IMR-32/STAT3-Luc/MfLEPR cells” value?
Answer: 0.368 nM

Question: Which “% Activation” value does the source give for B4 here?
Answer: 82%

Question: What about the “EC50 … IMR-32/STAT3-Luc/MfLEPR cells” value of the same binder?
Answer: 0.266 nM

Biological target: T2, human LEPR CRH1 (D1)-MMH (human, UniProt P48357 22-229, limits assumed)
T2 construct: domain: CRH1 (D1); Transiently expressed, captured from supernatant on anti-myc beads
Assay: Luminex, myc-captured LEPR domain
Procedure: (§1) Aliquots of microspheres with immobilized anti-myc monoclonal antibodies, prepared as described above, were added individually to 1 mL of the each of these protein supernatants. The microspheres were gently mixed, incubated for two hours at 25° C., washed twice with 1 mL of DBPS, centrifuged to remove the supernatant and finally resuspended in 1 mL of DPBS buffer. Forty-eight μL of anti-myc IgG coupled microspheres from individual reactions with full length human LEPR and with each of the human LEPR domain proteins were withdrawn and mixed together in 3.6 mL of PBS+20 mg/mL BSA+0.05% sodium azide (blocking buffer).
(§2) From this mixed pool, 75 μL of microspheres were plated per well on a 96 well filter plate (Millipore, Cat. No: MSBVN1250) and mixed with 25 μL of individual anti-human LEPR monoclonal antibodies (0.5 or 5 µg/mL), incubated for two hours at 25° C. and then washed twice with 200 μL of DPBS with 0.05% Tween 20 (washing buffer). […] After 30 minutes, the samples were washed twice with 200 μL of washing buffer and resuspended in 150 μL of wash buffer. The Median Fluorescence intensity (MFI) of the microspheres was measured in a Luminex Analyzer.

Question: B5 was tested. Which MFI did it give?
Answer: 12 MFI

Question: How did the MFI turn out when B6 was run?
Answer: 10 MFI

Question: B1 was tested. Which MFI did it give?
Answer: 8 MFI

Question: B7 was tested. Which MFI did it give?
Answer: 20 MFI

Question: B8 was tested. Which MFI did it give?
Answer: 17 MFI

Question: B9 was tested. Which MFI did it give?
Answer: 13 MFI

Question: Which MFI does the source give for B2 here?
Answer: 12 MFI

Question: B3 was tested. Which MFI did it give?
Answer: 9 MFI

Question: With B4 as the binder, how does the MFI read?
Answer: 8 MFI

Biological target: T3, human LEPR CRH1 (D1,D2)-MMH (human, UniProt P48357 22-339, limits assumed)
T3 construct: domain: CRH1 (D1,D2); Transiently expressed, captured from supernatant on anti-myc beads
Assay: Luminex, myc-captured LEPR domain
Procedure: as §1, §2

Question: For B5, which MFI is on record?
Answer: 30 MFI

Question: Which MFI does the source give for B6 here?
Answer: 16000 MFI

Question: Which MFI does the source give for B1 here?
Answer: 1250 MFI

Question: B7 was tested. Which MFI did it give?
Answer: 2930 MFI

Question: B8 was tested. Which MFI did it give?
Answer: 682 MFI

Question: How did the MFI turn out when B9 was run?
Answer: 18900 MFI

Question: Which MFI does the source give for B2 here?
Answer: 4390 MFI

Question: Which MFI does the source give for B3 here?
Answer: 2650 MFI

Question: How did the MFI turn out when B4 was run?
Answer: 4720 MFI

Biological target: T4, human LEPR CRH1-Ig (D2,D3)-MMH (human, UniProt P48357 230-427, limits assumed)
T4 construct: domain: CRH1-Ig (D2,D3); Transiently expressed, captured from supernatant on anti-myc beads
T4 sequence (P48357 other isoform, or with tags, fused parts or gaps limits assumed): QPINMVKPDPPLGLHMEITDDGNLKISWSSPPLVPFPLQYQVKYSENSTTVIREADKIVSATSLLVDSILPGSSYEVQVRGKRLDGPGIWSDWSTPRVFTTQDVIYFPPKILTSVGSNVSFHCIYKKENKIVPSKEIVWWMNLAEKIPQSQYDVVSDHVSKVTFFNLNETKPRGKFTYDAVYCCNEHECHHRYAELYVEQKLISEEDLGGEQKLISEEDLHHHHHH
Assay: Luminex, myc-captured LEPR domain
Procedure: as §1, §2

Question: B5 was tested. Which MFI did it give?
Answer: 40 MFI

Question: B6 was tested. Which MFI did it give?
Answer: 5500 MFI

Question: B1 was tested. Which MFI did it give?
Answer: 14 MFI

Question: B7 was tested. Which MFI did it give?
Answer: 42 MFI

Question: B9 was tested. Which MFI did it give?
Answer: 8880 MFI

Question: B2 was tested. Which MFI did it give?
Answer: 34 MFI

Question: For B3, which MFI is on record?
Answer: 15 MFI

Question: How did the MFI turn out when B4 was run?
Answer: 74 MFI

Biological target: T5, human LEPR CRH2-MMH (human, UniProt P48357 428-634, limits assumed)
T5 construct: domain: CRH2; Transiently expressed, captured from supernatant on anti-myc beads
T5 sequence (P48357 other isoform, or with tags, fused parts or gaps limits assumed): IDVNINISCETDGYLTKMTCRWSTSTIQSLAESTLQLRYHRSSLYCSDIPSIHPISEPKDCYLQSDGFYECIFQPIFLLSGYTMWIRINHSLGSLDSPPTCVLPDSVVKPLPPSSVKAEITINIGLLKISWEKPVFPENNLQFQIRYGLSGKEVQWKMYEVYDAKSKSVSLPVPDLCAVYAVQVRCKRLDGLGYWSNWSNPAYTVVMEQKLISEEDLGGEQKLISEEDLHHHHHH
Assay: Luminex, myc-captured LEPR domain
Procedure: as §1, §2

Question: For B5, which MFI is on record?
Answer: 17 MFI

Question: With B6 as the binder, how does the MFI read?
Answer: 39 MFI

Question: Which MFI does the source give for B1 here?
Answer: 91 MFI

Question: B7 was tested. Which MFI did it give?
Answer: 15 MFI

Question: Which MFI does the source give for B8 here?
Answer: 65 MFI

Question: B9 was tested. Which MFI did it give?
Answer: 165 MFI

Question: With B2 as the binder, how does the MFI read?
Answer: 33 MFI

Question: B3 was tested. Which MFI did it give?
Answer: 116 MFI

Question: B4 was tested. Which MFI did it give?
Answer: 16 MFI

Biological target: T6, human LEPR FNIII-MMH (human, UniProt P48357 636-839, limits assumed)
T6 construct: domain: FNIII; Transiently expressed, captured from supernatant on anti-myc beads
T6 sequence (P48357 other isoform, or with tags, fused parts or gaps limits assumed): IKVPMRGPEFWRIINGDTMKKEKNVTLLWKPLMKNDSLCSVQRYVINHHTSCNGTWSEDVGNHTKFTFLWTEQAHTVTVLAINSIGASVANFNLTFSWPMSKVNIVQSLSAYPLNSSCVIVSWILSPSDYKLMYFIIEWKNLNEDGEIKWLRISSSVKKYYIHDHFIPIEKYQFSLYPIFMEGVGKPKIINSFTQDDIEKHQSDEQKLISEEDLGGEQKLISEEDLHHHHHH
Assay: Luminex, myc-captured LEPR domain
Procedure: as §1, §2

Question: With B5 as the binder, how does the MFI read?
Answer: 230 MFI

Question: How did the MFI turn out when B6 was run?
Answer: 14 MFI

Question: With B1 as the binder, how does the MFI read?
Answer: 20 MFI

Question: Which MFI does the source give for B7 here?
Answer: 13 MFI

Question: Which MFI does the source give for B8 here?
Answer: 32 MFI

Question: How did the MFI turn out when B9 was run?
Answer: 25 MFI

Question: B2 was tested. Which MFI did it give?
Answer: 10 MFI

Question: For B3, which MFI is on record?
Answer: 40 MFI

Question: Which MFI does the source give for B4 here?
Answer: 6 MFI

Biological target: T1, full length human LEPR on cells
Assay: FACS, HEK293/Stat3-luc/hLEPR-FL, 70 nM Ab

Question: B1 was tested. Which “Binding Ratio” value did it give?
Answer: 47 fold over unstained

Question: B2 was tested. Which “Binding Ratio” value did it give?
Answer: 51 fold over unstained

Question: How did the “Binding Ratio” value turn out when B3 was run?
Answer: 46 fold over unstained

Question: B4 was tested. Which “Binding Ratio” value did it give?
Answer: 42 fold over unstained

Biological target: T7, preformed complex of hLEPR-MMH and human Leptin (human, UniProt P41159 22-167)
T7 construct: also called hLEPR-MMH: human Leptin complex; Leptn;LEPR
T7 sequence (P41159 22-167 limits assumed, one chain of several): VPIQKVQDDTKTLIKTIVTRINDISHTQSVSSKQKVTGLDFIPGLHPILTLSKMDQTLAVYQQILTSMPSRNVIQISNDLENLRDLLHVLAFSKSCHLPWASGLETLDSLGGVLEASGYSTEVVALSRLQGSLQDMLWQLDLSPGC
Assay: SPR, mAb over preformed hLEPR-MMH:Leptin complex, 25C
Procedure: The entire study was performed in 10 mM HEPES pH 7.4, 150 mM NaCl, 3 mM EDTA, and 0.05% v/v Surfactant Tween-20 (HBS-ET running buffer) at 25° C.

Question: Which “200 nM mAb Bound (RU)” value does the source give for B1 here?
Answer: 92 RU

Question: Which “200 nM mAb Bound (RU)” value does the source give for B2 here?
Answer: 90 RU

Question: For B4, which “200 nM mAb Bound (RU)” value is on record?
Answer: 81 RU
